Measured values published in patent US20150337309.

How the values were obtained:
[1] = molecular target: T1, periostin (Homo sapiens) (UniProt Q15063); test: filter
T1 sequence: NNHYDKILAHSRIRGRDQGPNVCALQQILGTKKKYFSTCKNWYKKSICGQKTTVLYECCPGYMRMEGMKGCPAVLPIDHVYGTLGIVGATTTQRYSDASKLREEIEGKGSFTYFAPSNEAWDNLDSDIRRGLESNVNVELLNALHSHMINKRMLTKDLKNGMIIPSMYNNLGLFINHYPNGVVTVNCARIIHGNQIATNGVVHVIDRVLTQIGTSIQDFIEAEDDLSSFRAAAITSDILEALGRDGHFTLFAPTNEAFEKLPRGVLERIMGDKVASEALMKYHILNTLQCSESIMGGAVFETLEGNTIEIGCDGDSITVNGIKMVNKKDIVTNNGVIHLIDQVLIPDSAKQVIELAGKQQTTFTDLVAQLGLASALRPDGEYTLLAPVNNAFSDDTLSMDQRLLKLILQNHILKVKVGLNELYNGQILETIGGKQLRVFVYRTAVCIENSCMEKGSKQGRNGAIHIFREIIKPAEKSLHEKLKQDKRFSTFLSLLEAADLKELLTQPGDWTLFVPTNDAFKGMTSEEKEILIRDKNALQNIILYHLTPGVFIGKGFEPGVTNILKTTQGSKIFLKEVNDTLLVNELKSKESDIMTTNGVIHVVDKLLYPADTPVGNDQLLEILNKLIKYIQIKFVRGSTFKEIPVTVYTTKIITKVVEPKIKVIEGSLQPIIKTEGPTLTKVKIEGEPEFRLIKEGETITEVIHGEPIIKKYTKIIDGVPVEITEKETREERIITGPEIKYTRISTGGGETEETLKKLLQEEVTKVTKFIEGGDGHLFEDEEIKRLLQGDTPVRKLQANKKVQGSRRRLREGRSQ

[2] = molecular target: T1, periostin (Homo sapiens); test: cell_activity; settings: BndU at all n [BndU at 6,7,9,14,16,21,22,26,28,31,34,35,44]; MDA-MB-231 adhesion to periostin-coated wells, 100 nM aptamer; control aptamer no effect

For “ACGAGTCACACGTTGATGACTGGATGGTAGTTAAAGAGGGTGGGGCAACAA [PNDA-2]”, the Kd ([1]; BndU at all n [BndU at 6,13,14,17,21,25,28,31,32,41], Bmax 78%) was 7.41 nM.

For “ACGAGTCTGGTCCTTCCTCCCTAATTGCTGTTGAGGTATCGGCTACAACAA [PNDA-4]”, the Kd ([1]; BndU at all n [BndU at 6,8,11,14,15,18,22,25,26,29,31,32,37,39,44], Bmax 90%) was 1 nM.

In the case of “ACGAGTCTGGTCCTTCCTTTGACGACTATTGTTTGGTATCGATCAACAACAA [PNDA-1]”, the Kd ([1]; BndU at all n [BndU at 6,8,11,14,15,18,19,20,27,29,30,32,33,34,37,39,43], Bmax 92%) is reported as 2.85 nM.

For “ACGAGTTGTCGCATGTGCGGTTCAGTCTGGTCCTTCAGCACCGTACAACAA [PNDA-3]”, the activity [2] was 60 % inhibition and the Kd ([1]; BndU at all n [BndU at 6,7,9,14,16,21,22,26,28,31,34,35,44], Bmax 95%) was 1.07 nM.

Work on “GATGTGAGTGTGTGACGAGTCACACGTTGATGACTGGATGGTAGTTAAAGAGGGTGGGGCAACAACAGAACAAGGAAAGG [clone 3 full length]” yielded a Kd ([1]; BndU at all n of the core [BndU at 20,27,28,31,35,39,42,45,46,55], Bmax 72%, 200 mM HEPES, 510 mM NaCl, 25 mM KCl, 25 mM MgCl2, 37 C) of 0.54 nM.

Sequence “GATGTGAGTGTGTGACGAGTCTGGTCCTTCCTCCCTAATTGCTGTTGAGGTATCGGCTACAACAACAGAACAAGGAAAGG [clone 17 full length]” has a Kd ([1]; BndU at all n of the core [BndU at 20,22,25,28,29,32,36,39,40,43,45,46,51,53,58], Bmax 78%, same buffer, 37 C) of 0.63 nM.

“GATGTGAGTGTGTGACGAGTCTGGTCCTTCCTGTATTAGATCATATCCTTAGGTATCGTCAACAACAGAACAAGGAAAGG [clone 1 full length]” was tested, and the Kd ([1]; BndU at all n of the core [BndU at 20,22,25,28,29,32,34,36,37,41,44,46,49,50,54,56,59], Bmax 80%, same buffer, 37 C) was 0.6 nM.

“GATGTGAGTGTGTGACGAGTCTGGTCCTTCCTTTGACGACTATTGTTTGGTATCGGACAACAACAACAGAACAAGGAAAGG [clone 5 full length]” gave a Kd ([1]; BndU at all n of the core [BndU at 20,22,25,28,29,32,33,34,41,43,44,46,47,48,51,53], Bmax 80%, same buffer, 37 C) of 1.41 nM.

With “GATGTGAGTGTGTGACGAGTTGTCGCATGTGCGGTTCAGTCTGGTCCTTCAGCACCGTACAACAACAGAACAAGGAAAGG [clone 8 full length]” the Kd ([1]; BndU at all n of the core [BndU at 20,21,23,28,30,35,36,40,42,45,48,49,58], Bmax 81%, same buffer, 37 C) was 1.14 nM.
